For test [1], the target named is T1, At1g65860 (Arabidopsis thaliana, UniProt Q9SS04).
T1 construct: (AT1G65860) mRNA, complete cds; made in house; host or cells: E. coli TOP10, arabinose-induced pBAD-TOPO; crude spheroplast preparation, 50 ug total protein
T1 sequence (Q9SS04 1-459): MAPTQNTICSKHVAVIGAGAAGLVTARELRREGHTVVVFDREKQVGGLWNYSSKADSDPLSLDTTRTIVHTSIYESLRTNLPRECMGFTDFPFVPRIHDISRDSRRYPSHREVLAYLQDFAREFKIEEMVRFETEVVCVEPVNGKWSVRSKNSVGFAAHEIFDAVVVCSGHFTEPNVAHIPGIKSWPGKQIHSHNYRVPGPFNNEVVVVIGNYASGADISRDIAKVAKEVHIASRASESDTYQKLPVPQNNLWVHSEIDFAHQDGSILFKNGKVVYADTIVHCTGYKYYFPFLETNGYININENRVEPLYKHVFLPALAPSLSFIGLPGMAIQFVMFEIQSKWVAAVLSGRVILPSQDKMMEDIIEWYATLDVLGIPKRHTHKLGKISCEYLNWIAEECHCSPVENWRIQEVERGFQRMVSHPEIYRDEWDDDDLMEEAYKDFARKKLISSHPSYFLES
In words: Enzymatic activity of heterologously expressed At1g65860 in E. coli spheroplasts. The class given is biochemical. The following applies: 1 hour at 30° C.; for oxygenation on the sulfur: tested as substrates at 0.1 mM, 1 mM and 10 mM. As for the experimental part:
FIG. 3—Enzymatic activity of heterologously expressed At1g65860 in E. coli spheroplasts using the arabinose inducible pBad TOPO® TA Expression system (Invitrogen). 50 μg total E. coli protein were used for each assay and allowed to proceed for 1 hour at 30° C. 4-methylsulfinylbutyl glucosinolate and desulfo-methylsulfinylbutyl glucosinolate production were quantified by HPLC (monitored at 229 nm). Compound identities were confirmed by comparison of both retention times, UV light absorption profiles and mass by LC/MS with those of authentic standards.
At1g65860 pBAD-TOPO constructs and a vector control (empty pBAD-TOPO) were transformed into the E. coli strain TOP10 (Invitrogen). Single colonies were grown overnight in Luria broth (LB) with 100 μg/ml ampicillin. One milliliter of the overnight culture was used to inoculate 100 ml of LB medium supplemented with 100 μg/ml ampicillin and the culture was grown at 37° C., 250 rpm to OD600=0.5, at which time arabinose (final conc. 0.02%) was added. The culture was grown at 28° C., 250 rpm for 16 h.
Following arabinose induction, spheroplasts of E. coli cells were prepared. The culture was chilled on ice, pelleted at 2500 g for 10 min, followed by resuspension by sequential addition of 8.3 ml 200 mM Tris/HCl, pH 7.6, 1.42 g sucrose, 16.7 μL […], 41.7 μL 0.1M phenylmethylsulfonyl fluoride, 33.3 μL lysozyme (50 mg/ml) and finally 8.31 mL ice-cold water with slow stirring. After 30 min incubation at 4° C. with slow stirring, 166 μL 1M Mg(OAc)2 was added and membranes were pelleted at 3000 g for 10 min at 4° C. Pellet was resuspended in 1800 μL 10 mM Tris/HCl pH 7.6/14 mM Mg(OAc)2/60 mM KOAc. The suspension was homogenized in a Potter-Elvehjem followed by the addition of 5 μL RNAse (10 mg/ml) and 5 μL DNAse (5 mg/ml) and slowly stirred for 30 min at 4° C. 235 μL 87% glycerol was added and the spheroplasts were stored at −80° C. for several weeks without loss of activity.
The 100 ul assay solution contained substrate and spheroplasts corresponding to 50 ug total E. coli protein in a 0.1 M Tricine at pH 7.9, 0.25 mM NADPH buffer. The reaction was allowed to proceed for 1 hour at 30° C. and terminated by the addition of 100 μL methanol and centrifuged at 5000 g for 2 min. The supernatant was moved to new tubes followed by lyophilization to dryness and finally redissolved in 50 μL water.
4-methylthiobutyl glucosinolate and desulfo 4-methylthiobutyl glucosinolate were used as substrates with final concentrations in the assay as given in FIG. 3. 4-methylthiobutyl oxime, dihomomethionine, methionine were tested as substrates at 0.1 mM, 1 mM and 10 mM final concentrations. […]

The target of test [2] is T2, At1g12140 (Arabidopsis thaliana, UniProt A8MRX0).
T2 construct: made in house; host or cells: E. coli
T2 sequence (A8MRX0 1-459): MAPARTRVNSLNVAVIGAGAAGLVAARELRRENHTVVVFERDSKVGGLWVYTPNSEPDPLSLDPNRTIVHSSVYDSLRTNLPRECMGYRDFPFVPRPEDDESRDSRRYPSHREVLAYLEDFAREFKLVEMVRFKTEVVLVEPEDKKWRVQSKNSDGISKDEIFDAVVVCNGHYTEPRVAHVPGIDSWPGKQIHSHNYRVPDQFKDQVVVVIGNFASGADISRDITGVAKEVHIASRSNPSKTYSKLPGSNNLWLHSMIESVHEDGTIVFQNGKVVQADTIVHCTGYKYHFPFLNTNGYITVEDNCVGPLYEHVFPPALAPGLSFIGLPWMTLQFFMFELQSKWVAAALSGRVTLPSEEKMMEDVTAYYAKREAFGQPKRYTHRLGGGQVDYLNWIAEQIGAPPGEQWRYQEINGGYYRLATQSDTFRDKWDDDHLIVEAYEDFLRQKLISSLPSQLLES
The test can be described thus: Heterologous expression of At1g12140 in E. coli, desulfo-glucosinolate substrate mix. The class given is biochemical. The following applies: desulfo-glucosinolates from Arabidopsis Col-0 seeds as substrate mix. An excerpt:
(§1) FIG. 15—Heterologous expression of At1g12140 in E. coli using desulfo-glucosinolates from glucosinolates from Arabidopsis Col-0 seeds as substrate mix.

In test [3] the test system is Arabidopsis thaliana Col-0. In words: 4MTB and 4MSB levels in At1g65860 and At1g62560 overexpression lines. It is filed as in vivo. The following applies: expressed constitutively. As for the experimental part: FIG. 5—4-methylthiobutyl glucosinolate levels in rosette leaves from 24 day old wild type columbia and transgenic At1g65860 and At1g62560 overexpression lines. Quantities are given in nmol/mg fresh weight ±one standard deviation and are the mean of extractions from four individual plants. Two independent lines were analysed for each construct. The lines H and AT for 35S overexpression of At1g65860 and line 9 and 11 for 35S overexpression of At1g62560.
FIG. 12—4-6 fold increase in 4MSB levels in seeds in overexpressors of At1g62560 and At1g65860.
In another separate experiment a mix of heterozygous and homozygous 35S:At1g62560 and 35S:At1g65860 as well as Arabidopsis thaliana, ecotype Columbia, were used.
Three-four leaves (20-80 mg) were harvested from each plant and the material freeze-dried O/N. After adding one ball bearing to each tube, the tissue was homogenized by shaking at a frequency of 30 s^−1 for one min on a Retsch Mixer Mill 303 (Retsch, Haan, Germany). 250 μl of 85% methanol was added to each tube and the entire box vortexed for 30 s. For glucosinolate extraction from seeds (10-20 mg) 250 μl of 85% methanol was added before homogenization. The samples were mixed for two minutes by vortexing. […]

Test [4] can be described thus: Activity of FMOs of the invention in E. coli or in seeds using a variety of substrates. The class given is biochemical, Arabidopsis thaliana. The following applies: for S-oxygenation activity: desulfo and intact glucosinolates; for substrate specificity: methylthio glucosinolates in Arabidopsis.
Excerpt: FIG. 11—Heterologous expression of At1g62560 in E. coli using 4MTB as substrate, with an empty vector as control.
FIG. 13—Heterologous expression of At1g62540 in E. coli using 4MTB as substrate, with an empty vector as control.
as §1
FIG. 17—Heterologous expression of At1g62570 in E. coli using desulfo-glucosinolates from glucosinolates from Arabidopsis Col-0 seeds as substrate mix, with an empty vector as control.
FIGS. 11-18 show the activity of At1g62560, At1g65860, At1g62540, At1g12140 and At1g62570 in E. coli or in seeds using a variety of substrates.

7 molecules from patent US20100011462A1, “FLAVIN MONOOXYGENASES AND TRANSCRIPTION FACTORS INVOLVED IN GLUCOSINOLATE BIOSYNTHESIS” (University of Copenhagen, priority 2006, published 2010) can be followed below.

As to `CSCCCC/C=N\O` [4-methylthiobutyl oxime], in test [1], the “oxygenation on the sulfur” value is “No oxygenation on the sulfur”.

Turning to `CSCCCC/C(=N/OS(=O)(=O)O)S[C@@H]1O[C@H](CO)[C@@H](O)[C@H](O)[C@H]1O` [4MTB, 4-methylthiobutyl glucosinolate], the “production of 4MSB from 4MTB” value in test [1] (50 μg total E. coli protein, HPLC 229 nm) is listed as “production of 4MSB from 4MTB”. On to `CSCCCCCCCCC(=NOS(=O)(=O)O)S[C@@H]1O[C@H](CO)[C@@H](O)[C@H](O)[C@H]1O` [8MTO, 8-methylthiooctyl glucosinolate], for which, in test [2], the S-oxygenation activity result is recorded as “high activity”. For the molecule `CSCCCCC(N)C(=O)O` (centres unmarked) [dihomomethionine], the “oxygenation on the sulfur” value in test [1] is reported as “No oxygenation on the sulfur”. On to `CSCC[C@H](N)C(=O)O` [methionine], for which the “oxygenation on the sulfur” value in test [1] is recorded as “No oxygenation on the sulfur”.

B1: At1g62560: flavin-containing monooxygenase (FMO) from A. thaliana, SEQ ID NO 2; also its overexpression in planta (protein, listed as Arabidopsis thaliana)
chain: MAPAQNQITSKHVAVIGAGPAGLITSRELRREGHSVVVFEREKQVGGLWVYTPKSDSDPLSLDPTRSKVHSSIYESLRTNVPRESMGVRDFPFLPRFDDESRDARRYPNHREVLAYIQDFAREFKIEEMIRFETEVVRVEPVDNGNWRVQSKNSGGFLEDEIYDAVVVCNGHYTEPNIAHIPGIKSWPGKQIHSHNYRVPDPFENEVVVVIGNFASGADISRDIAKVAKEVHIASRAREPHTYEKISVPQNNLWMHSEIDTTHEDGSIVFKNGKVIFADSIVYCTGYKYNFPFLETNGYLRIDEKRVEPLYKHVFPPALAPGLAFVGLPAMGIVFVMFEIQSKWVAAVLSGRVTLPSTDKMMEDINAWYASLDALGIPKRHTHTIGRIQSEYLNWVAKESGCELVERWRGQEVDGGYLRLVAHPETYRDEWDDDELIEEAYNDFSRKKLISVDPSYYLENGR
In the case of B1, the 4-methylthiobutyl glucosinolate levels entry in test [3] is “reduced”. Moreover, in test [4], the S-oxygenation activity entry was “S-oxygenation activity” and the substrate specificity result is reported as “broad specificity towards all methylthio (MT) glucosinolates”.

B2: At1g65860: flavin-containing monooxygenase (FMO) from A. thaliana, SEQ ID NO 4; also its overexpression in planta (protein, listed as Arabidopsis thaliana)
chain: T1 sequence (Q9SS04 1-459)
Regarding B2, in test [3], the 4-methylthiobutyl glucosinolate levels entry is “reduced”. In test [4], the S-oxygenation activity entry is given as “S-oxygenation activity” and the substrate specificity entry is “broad specificity towards all methylthio (MT) glucosinolates”.
